The source of these data is publication PMC3820160.

For this assay, the target named is HA/Flag-tagged Met66 prodomain (human). The assay can be described thus: co-IP.
Chain of HA/Flag-tagged Met66 prodomain (human) (P23560 19-247): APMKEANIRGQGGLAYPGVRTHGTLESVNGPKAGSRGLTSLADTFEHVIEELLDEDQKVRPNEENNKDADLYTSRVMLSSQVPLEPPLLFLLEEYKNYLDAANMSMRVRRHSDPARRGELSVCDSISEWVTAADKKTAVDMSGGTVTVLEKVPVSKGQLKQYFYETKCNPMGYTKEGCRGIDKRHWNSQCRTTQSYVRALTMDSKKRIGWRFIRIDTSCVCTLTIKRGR

In the case of “Myc-tagged SorCS2 (from UniProt Q96PQ0 51-1159) (receptor)”, the percent more co-immunoprecipitated than with the Val66 prodomain stood at 23%.
